Laboratory results reported in paper PMC6728052 (PLoS Computational Biology, 2019).
Changes are numbered by the printed parent chain.

B1: G6^des1, Fab (Fab, V domains shown)
VH: EVQLVESGGGLVQPGGSLRLSCAASGFTISDYWIHWVRQAPGKGLEWVAGITPAGGYTHYADSVKGRFTISADTSKNTAYLQMNSLRAEDTAVYFCARFVFFLPYAMDYWGQGTLVTVSS
VL: DIQMTQSPSSLSASVGDRVTITCRASQDVSTAVAWYQQKPGKPPKLLIFSASFLFSGVPSRFSGSGSGTDFTLTISSLQPEDFATYYCLQSYTVTPTFGPGTKVEIK
B2: G6^des13, Fab (Fab, V domains shown)
VH: B1 VH
VL: B1 VL with F49Y, F55Y, V94D, P100Q
B3: D44.1^des, Fab (Fab, V domains shown)
VH: QVQLQESGAEVMKPGASVKISCKATGYTFSTYWIEWMKQRPGGGLEYIGEILPGSGSTYYNEKFKGKATFTADTSSNTAYMQLSSLTSEDSAVYYCARGDGYYKYWGQGTTLTVSS
VL: DIELTQSPATLSVTPGDSVSLSCRASQSISNNLHWYQQKSHEPPRLLIKYVSQSVSGIPSRFSGSGSGTDFTLSINSVETEDFGMYFCGQSNSWPRTFGGGTKLEIK

Tests used:
[1] = molecular target: human Vascular-Endothelial Growth Factor (VEGF) (Homo sapiens, UniProt P15692-4); assay: SPR
hen egg-white lysozyme = hen egg-white lysozyme (Gallus gallus, UniProt P00698); assay: SPR
hen egg-white lysozyme, sequence (P00698 19-147): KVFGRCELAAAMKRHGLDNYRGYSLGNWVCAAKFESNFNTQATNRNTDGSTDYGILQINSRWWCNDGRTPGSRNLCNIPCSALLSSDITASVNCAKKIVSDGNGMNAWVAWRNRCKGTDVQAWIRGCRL

Binder	kon [1]	Kd [1]	koff [1]	Kd (hen egg-white lysozyme)	koff (hen egg-white lysozyme)	kon (hen egg-white lysozyme)
B1	327000 M⁻¹ s⁻¹	–	–	–	–	–
B2	530000 M⁻¹ s⁻¹	0.06 nM	3.2e-05 s⁻¹	–	–	–
B3	–	–	–	15 nM	0.00079 s⁻¹	53000 M⁻¹ s⁻¹
